Assay [1] addresses T1, recombinant human VEGF 165 (human, UniProt P15692-4 27-191).
T1 construct: Bought protein
Kind of assay: blocking ELISA: VEGF 165 coated on the plate, binding of recombinant human VEGFR-2 is blocked. As to the method:
(§1) In brief, 96-well assay plates were coated with 0.5 ug/ml of recombinant human VEGF 165 (R&D) in carbonate-bicarbonate buffer (pH 9.6) at 4° C. overnight followed by blocking with 1% BSA/PBS for 1 hour at room temperature. Serially diluted antibodies were then added to the plate and incubated for 30 minutes at room temperature. […] Followed by washing with Wash Buffer, goat anti-mouse IgG-HRP were added to the plate and incubated for 1 hour at room temperature. […] IC50 values were determined as the mid-point in the activity curve.

Assay [2] addresses T1, recombinant human VEGF 165. The assay is described as above. As to the method:
as §1
This is another data set of the same source.

The target of assay [3] is T1, recombinant human VEGF 165. Kind of assay: blocking ELISA: VEGF-165 coated on the plate, binding of recombinant human VEGFR-2-hu IgG1-His Tag is blocked. As to the method:
Briefly, 0.5 ug/ml of recombinant human VEGF-165 (R&D #293-VE-050/CF) in carbonate-bicarbonate buffer was coated to the wells in a 96-well assay plate and incubated overnight at 4° C. The wells were then washed 3 times with 0.05% Tween 20 in PBS (wash buffer), blocked with 1% BSA in PBS for 1 hour at room temperature, and washed 3 times with wash buffer. 50 μl 5-fold serially diluted antibodies were then added to wells in the plate and incubated for 30 minutes at room temperature. […] 100 μl anti-His tag HRP (1:10,000) was then added and the plates were incubated for 40 mins at room temperature and washed 3 times with wash buffer.

In a further assay the target is human TGFβ1 (human, UniProt P01137 279-390). As to the kind of experiment: cell-based or functional assay.
Assay [4] has as its target T2, human PD-1 on transfected CHO-K1 cells (human, UniProt Q15116 25-288).
T2 construct: also called Human PD-1 transfected CHO-K1 cells
As to the kind of experiment: cell-based blocking assay, flow cytometry: binding of FITC labeled human PD-L1-Fc to human PD-1 transfected CHO-K1 cells is blocked. As to the method: Incubate for 15 mins before analysis with the iQue intellicyt system.

T1 sequence (P15692 other isoform, or with tags, fused parts or gaps limits assumed): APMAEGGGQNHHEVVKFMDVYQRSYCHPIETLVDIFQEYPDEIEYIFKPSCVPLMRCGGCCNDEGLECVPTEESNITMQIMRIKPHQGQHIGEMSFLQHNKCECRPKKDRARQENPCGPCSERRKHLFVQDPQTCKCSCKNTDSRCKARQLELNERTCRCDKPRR
T2 sequence (Q15116 25-288 limits assumed): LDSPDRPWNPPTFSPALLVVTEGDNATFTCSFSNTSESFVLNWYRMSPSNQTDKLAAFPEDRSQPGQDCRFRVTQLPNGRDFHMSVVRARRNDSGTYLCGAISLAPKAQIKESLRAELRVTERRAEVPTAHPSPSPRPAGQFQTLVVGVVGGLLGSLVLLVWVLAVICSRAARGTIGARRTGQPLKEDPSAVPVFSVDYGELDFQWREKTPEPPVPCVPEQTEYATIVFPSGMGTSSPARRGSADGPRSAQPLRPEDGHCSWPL
Sequence of human TGFβ1 (P01137 279-390 limits assumed): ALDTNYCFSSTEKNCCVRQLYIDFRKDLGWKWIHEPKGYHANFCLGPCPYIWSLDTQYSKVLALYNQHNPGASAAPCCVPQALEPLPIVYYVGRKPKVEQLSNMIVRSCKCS

B1: aflibercept peptide (positive control) (other)
chain: SDTGRPFVEMYSEIPEIIHMTEGRELVIPCRVTSPNITVTLKKFPLDTLIPDGKRIIWDSRKGFIISNATYKEIGLLTCEATVNGHLYKTNYLTHRQTNTIIDVVLSPSHGIELSVGEKLVLNCTARTELNVGIDFNWEYPSSKHQHKKLVNRDLKTQSGSEMKKFLSTLTIDGVTRSDQGLYTCAASSGLMTKKNSTFVRVHEK
Consider B1, for which the IC50 in assay [1] is 0.2 nM; in assay [2], 0.29 nM.

B2: TS-ZPB-3(2P17) (other)
heavy: QVQLVQSGAEVKKPGASVKVSCKASGYTFTSYYIHWVRQAPGQGLEWMGWIFPGSGNSKYNENFKGRVTLTADTSTSTVYMELSSLRSEDTAVYYCASETYDYGDYWGQGTLVTVSSASTKGPSVFPLAPCSRSTSESTAALGCLVKDYFPEPVTVSWNSGALTSGVHTFPAVLQSSGLYSLSSVVTVPSSSLGTKTYTCNVDHKPSNTKVDKRVESKYGPPCPPCPAPEFLGGPSVFLFPPKPKDTLMISRTPEVTCVVVDVSQEDPEVQFNWYVDGVEVHNAKTKPREEQFNSTYRVVSVLTVLHQDWLNGKEYKCKVSNKGLPSSIEKTISKAKGQPREPQVYTLPPSQEEMIPPHVQKSVNNDMIVTDNNGAVKFPQLCKFCDVRFSTCDNQKSCMSNCSITSICEKPQEVCVAVWRKNDENITLETVCHDPKLPYHDFILEDAASPKCIMKEKKKPGETFFMCSCSSDECNDNIIFSEEYNTSNPDTKNQVSLTCLVKGFYPSDIAVEWESNGQPENNYKTTPPVLDSDGSFFLYSRLTVDKSRWQEGNVFSCSVMHEALHNHYTQKSLSLSLGKGGGGSGGGGSGGGGSSDTGRPFVEMYSEIPEIIHMTEGRELVIPCRVTSPNITVTLKKFPLDTLIPDGKRIIWDSRKGFIISNATYKEIGLLTCEATVNGHLYKTNYLTHRQTNTIIDVVLSPSHGIELSVGEKLVLNCTARTELNVGIDFNWEYPSSKHQHKKLVNRDLKTQSGSEMKKFLSTLTIDGVTRSDQGLYTCAASSGLMTKKNSTFVRVHEK
light: DIQMTQSPSFLSASVGDRVTITCKASQNVGTNVAWYQQKPGKAPKALIYSASYRYSGVPSRFSGSGSGTEFTLTISSLQPEDFATYYCQQYYSYPYTFGQGTKLEIKRTVAAPSVFIFPPSDEQLKSGTASVVCLLNNFYPREAKVQWKVDNALQSGNSQESVTEQDSKDSTYSLSSTLTLSKADYEKHKVYACEVTHQGLSSPVTKSFNRGEC
For B2, the IC50 was determined as 7.71 nM in assay [3] and 2.39 nM in assay [4]. Further, the “IC50; luciferase signal of TGFβ/SMAD SBE Reporter-HEK293 cells stimulated with human TGFβ1” value with human TGFβ1 was 2.95 nM.
